The values below come from patent US20230203202A1 (DRAGONFLY THERAPEUTICS, published 2023).

As usually defined, the EC50 is the concentration giving half of the maximal effect. Read a high EC50 as a need for much substance.

In the test the target is T1, human 5T4 on the cell surface (human, UniProt Q13641 32-420).
T1 construct: whole, on cells; also called h5T4; TPBG
T1 sequence (looked up): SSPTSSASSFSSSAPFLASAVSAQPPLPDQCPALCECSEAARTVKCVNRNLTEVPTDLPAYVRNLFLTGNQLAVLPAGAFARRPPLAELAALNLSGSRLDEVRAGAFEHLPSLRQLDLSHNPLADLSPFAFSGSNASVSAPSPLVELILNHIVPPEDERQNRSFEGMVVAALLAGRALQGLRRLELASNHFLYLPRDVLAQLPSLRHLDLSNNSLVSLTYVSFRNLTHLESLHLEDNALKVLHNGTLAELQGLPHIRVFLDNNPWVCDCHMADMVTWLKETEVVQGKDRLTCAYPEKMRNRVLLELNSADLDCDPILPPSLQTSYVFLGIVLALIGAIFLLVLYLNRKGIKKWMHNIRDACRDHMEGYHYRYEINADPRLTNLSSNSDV
In words: cell binding assay on 5T4-expressing tumor cells (cell line not given).

B1: AB1879-TriNKET® (bispecific antibody, human IgG1, kappa)
chain: DIQLTQSPSSLSASVGDRVTITCRASQGVSTSTYTYMHWFQQKPGKAPKLLIKFASNLESGVPSRFSGSGSGTDFTLTISSLQPEDFATYYCQHSWEIPWTFGCGTKVEIKGGGGSGGGGSGGGGSGGGGSEVQLVESGGGLVQPGGSLRLSCAASGFTFSDYGMHWVRQAPGKCLEWVSYISSGSSTFYYADTVKGRFTISRDNAKNSLYLQMNSLRAEDTAVYYCGSSQSYYRGTMDYWGQGTTVTVSSGSDKTHTCPPCPAPELLGGPSVFLFPPKPKDTLMISRTPEVTCVVVDVSHEDPEVKFNWYVDGVEVHNAKTKPREEQYNSTYRVVSVLTVLHQDWLNGKEYKCKVSNKALPAPIEKTISKAKGQPREPRVYTLPPCRDELTKNQVSLTCLVKGFYPSDIAVEWESNGQPENNYKTTPPVLVSDGSFTLYSKLTVDKSRWQQGNVFSCSVMHEALHNHYTQKSLSLSPG
heavy: EVQLVESGGGLVKPGGSLRLSCAASGFTFSSYSMNWVRQAPGKGLEWVSSISSSSSYIYYADSVKGRFTISRDNAKNSLYLQMNSLRAEDTAVYYCARGAPIGAAAGWFDPWGQGTLVTVSSASTKGPSVFPLAPSSKSTSGGTAALGCLVKDYFPEPVTVSWNSGALTSGVHTFPAVLQSSGLYSLSSVVTVPSSSLGTQTYICNVNHKPSNTKVDKKVEPKSCDKTHTCPPCPAPELLGGPSVFLFPPKPKDTLMISRTPEVTCVVVDVSHEDPEVKFNWYVDGVEVHNAKTKPREEQYNSTYRVVSVLTVLHQDWLNGKEYKCKVSNKALPAPIEKTISKAKGQPREPQVCTLPPSRDELTENQVSLTCLVKGFYPSDIAVEWESNGQPENNYKTTPPVLDSDGSFFLYSWLTVDKSRWQQGNVFSCSVMHEALHNHYTQKSLSLSPG
light: DIQMTQSPSSVSASVGDRVTITCRASQGISSWLAWYQQKPGKAPKLLIYAASSLQSGVPSRFSGSGSGTDFTLTISSLQPEDFATYYCQQGVSFPRTFGGGTKVEIKRTVAAPSVFIFPPSDEQLKSGTASVVCLLNNFYPREAKVQWKVDNALQSGNSQESVTEQDSKDSTYSLSSTLTLSKADYEKHKVYACEVTHQGLSSPVTKSFNRGEC
notes: F3′ format; also called AB1879-VL-VH TriNKET®; 11F09-IGHV3-48*01 BM1-YB
Take B1: the EC50 amounted to 9.18 nM and the “Max Fold Over Background (FOB)” value stood at 62.9 fold over background.

B2: AB1889-TriNKET® (bispecific antibody, human IgG1, kappa)
chain: DIQLTQSPSSLSASVGDRVTITCRASQGVSTSTYTYMHWFQQKPGKAPKLLIKFASNLESGVPSRFSGSGSGTDFTLTISSLQPEDFATYYCQHSWEIPWTFGCGTKVEIKGGGGSGGGGSGGGGSGGGGSEVQLVESGGGLVQPGGSLRLSCAASGFTFSDYGMHWVRQAPGKCLEWLAYISSGSSTFYYADTVKGRFTISRDNAKNSLYLQMNSLRAEDTAVYYCGSSQSYYRGTMDYWGQGTTVTVSSGSDKTHTCPPCPAPELLGGPSVFLFPPKPKDTLMISRTPEVTCVVVDVSHEDPEVKFNWYVDGVEVHNAKTKPREEQYNSTYRVVSVLTVLHQDWLNGKEYKCKVSNKALPAPIEKTISKAKGQPREPRVYTLPPCRDELTKNQVSLTCLVKGFYPSDIAVEWESNGQPENNYKTTPPVLVSDGSFTLYSKLTVDKSRWQQGNVFSCSVMHEALHNHYTQKSLSLSPG
heavy: EVQLVESGGGLVKPGGSLRLSCAASGFTFSSYSMNWVRQAPGKGLEWVSSISSSSSYIYYADSVKGRFTISRDNAKNSLYLQMNSLRAEDTAVYYCARGAPIGAAAGWFDPWGQGTLVTVSSASTKGPSVFPLAPSSKSTSGGTAALGCLVKDYFPEPVTVSWNSGALTSGVHTFPAVLQSSGLYSLSSVVTVPSSSLGTQTYICNVNHKPSNTKVDKKVEPKSCDKTHTCPPCPAPELLGGPSVFLFPPKPKDTLMISRTPEVTCVVVDVSHEDPEVKFNWYVDGVEVHNAKTKPREEQYNSTYRVVSVLTVLHQDWLNGKEYKCKVSNKALPAPIEKTISKAKGQPREPQVCTLPPSRDELTENQVSLTCLVKGFYPSDIAVEWESNGQPENNYKTTPPVLDSDGSFFLYSWLTVDKSRWQQGNVFSCSVMHEALHNHYTQKSLSLSPG
light: DIQMTQSPSSVSASVGDRVTITCRASQGISSWLAWYQQKPGKAPKLLIYAASSLQSGVPSRFSGSGSGTDFTLTISSLQPEDFATYYCQQGVSFPRTFGGGTKVEIKRTVAAPSVFIFPPSDEQLKSGTASVVCLLNNFYPREAKVQWKVDNALQSGNSQESVTEQDSKDSTYSLSSTLTLSKADYEKHKVYACEVTHQGLSSPVTKSFNRGEC
notes: F3′ format; also called AB1889-VL-VH TriNKET®; 11F09-IGHV3-48*01 BM2-YB
On to B2, for which the response was half-maximal at 20.7 nM (EC50) and the “Max Fold Over Background (FOB)” value is 11.7 fold over background.

B3: AB1880-TriNKET® (bispecific antibody, human IgG1, kappa)
chain: DIQLTQSPSSLSASVGDRVTITCRASQGVSTSTYTYMHWFQQKPGKAPKLLIKFASNLESGVPSRFSGSGSGTDFTLTISSLQPEDFATYYCQHSWEIPWTFGCGTKVEIKGGGGSGGGGSGGGGSGGGGSEVQLVESGGGLVKPGGSLRLSCEASGFTFSDYGMHWVRQAPGKCLEWLAYISSGSSTFYYADTVKGRFTISRDNAKNSLYLQMNSLRAEDTAVYYCGSSQSYYRGTMDYWGQGTTVTVSSGSDKTHTCPPCPAPELLGGPSVFLFPPKPKDTLMISRTPEVTCVVVDVSHEDPEVKFNWYVDGVEVHNAKTKPREEQYNSTYRVVSVLTVLHQDWLNGKEYKCKVSNKALPAPIEKTISKAKGQPREPRVYTLPPCRDELTKNQVSLTCLVKGFYPSDIAVEWESNGQPENNYKTTPPVLVSDGSFTLYSKLTVDKSRWQQGNVFSCSVMHEALHNHYTQKSLSLSPG
heavy: EVQLVESGGGLVKPGGSLRLSCAASGFTFSSYSMNWVRQAPGKGLEWVSSISSSSSYIYYADSVKGRFTISRDNAKNSLYLQMNSLRAEDTAVYYCARGAPIGAAAGWFDPWGQGTLVTVSSASTKGPSVFPLAPSSKSTSGGTAALGCLVKDYFPEPVTVSWNSGALTSGVHTFPAVLQSSGLYSLSSVVTVPSSSLGTQTYICNVNHKPSNTKVDKKVEPKSCDKTHTCPPCPAPELLGGPSVFLFPPKPKDTLMISRTPEVTCVVVDVSHEDPEVKFNWYVDGVEVHNAKTKPREEQYNSTYRVVSVLTVLHQDWLNGKEYKCKVSNKALPAPIEKTISKAKGQPREPQVCTLPPSRDELTENQVSLTCLVKGFYPSDIAVEWESNGQPENNYKTTPPVLDSDGSFFLYSWLTVDKSRWQQGNVFSCSVMHEALHNHYTQKSLSLSPG
light: DIQMTQSPSSVSASVGDRVTITCRASQGISSWLAWYQQKPGKAPKLLIYAASSLQSGVPSRFSGSGSGTDFTLTISSLQPEDFATYYCQQGVSFPRTFGGGTKVEIKRTVAAPSVFIFPPSDEQLKSGTASVVCLLNNFYPREAKVQWKVDNALQSGNSQESVTEQDSKDSTYSLSSTLTLSKADYEKHKVYACEVTHQGLSSPVTKSFNRGEC
notes: F3′ format; also called AB1880-VL-VH TriNKET®; 11F09-IGHV3-21*05 BM2-YB
Regarding B3, the EC50 was 21.7 nM and the “Max Fold Over Background (FOB)” value turned out to be 48.5 fold over background.

B4: AB1883-TriNKET® (bispecific antibody, human IgG1, kappa)
chain: DIQLTQSPSSLSASVGDRVTITCRASQGVSTSTYTYMHWFQQKPGKAPKLLIKFASNLESGVPSRFSGSGSGTDFTLTISSLQPEDFATYYCQHSWEIPWTFGCGTKVEIKGGGGSGGGGSGGGGSGGGGSQVQLVESGGGLVKPGGSLRLSCAASGFTFSDYGMHWVRQAPGKCLEWLAYISSGSSTFYYADTVKGRFTISRDNAKNSLYLQMNSLRAEDTAVYYCGSSQSYYRGTMDYWGQGTTVTVSSGSDKTHTCPPCPAPELLGGPSVFLFPPKPKDTLMISRTPEVTCVVVDVSHEDPEVKFNWYVDGVEVHNAKTKPREEQYNSTYRVVSVLTVLHQDWLNGKEYKCKVSNKALPAPIEKTISKAKGQPREPRVYTLPPCRDELTKNQVSLTCLVKGFYPSDIAVEWESNGQPENNYKTTPPVLVSDGSFTLYSKLTVDKSRWQQGNVFSCSVMHEALHNHYTQKSLSLSPG
heavy: EVQLVESGGGLVKPGGSLRLSCAASGFTFSSYSMNWVRQAPGKGLEWVSSISSSSSYIYYADSVKGRFTISRDNAKNSLYLQMNSLRAEDTAVYYCARGAPIGAAAGWFDPWGQGTLVTVSSASTKGPSVFPLAPSSKSTSGGTAALGCLVKDYFPEPVTVSWNSGALTSGVHTFPAVLQSSGLYSLSSVVTVPSSSLGTQTYICNVNHKPSNTKVDKKVEPKSCDKTHTCPPCPAPELLGGPSVFLFPPKPKDTLMISRTPEVTCVVVDVSHEDPEVKFNWYVDGVEVHNAKTKPREEQYNSTYRVVSVLTVLHQDWLNGKEYKCKVSNKALPAPIEKTISKAKGQPREPQVCTLPPSRDELTENQVSLTCLVKGFYPSDIAVEWESNGQPENNYKTTPPVLDSDGSFFLYSWLTVDKSRWQQGNVFSCSVMHEALHNHYTQKSLSLSPG
light: DIQMTQSPSSVSASVGDRVTITCRASQGISSWLAWYQQKPGKAPKLLIYAASSLQSGVPSRFSGSGSGTDFTLTISSLQPEDFATYYCQQGVSFPRTFGGGTKVEIKRTVAAPSVFIFPPSDEQLKSGTASVVCLLNNFYPREAKVQWKVDNALQSGNSQESVTEQDSKDSTYSLSSTLTLSKADYEKHKVYACEVTHQGLSSPVTKSFNRGEC
notes: F3′ format; also called AB1883-VL-VH TriNKET®; 11F09-IGHV3-11*01 BM2-YB
With B4, the EC50 was determined as 6.02 nM and the “Max Fold Over Background (FOB)” value worked out at 69.4 fold over background.

B5: AB1888-TriNKET® (bispecific antibody, human IgG1, kappa)
chain: DIQLTQSPSSLSASVGDRVTITCRASQGVSTSTYTYMHWFQQKPGKAPKLLIKFASNLESGVPSRFSGSGSGTDFTLTISSLQPEDFATYYCQHSWEIPWTFGCGTKVEIKGGGGSGGGGSGGGGSGGGGSEVQLVESGGGLVKPGGSLRLSCAASGFTFSDYGMHWVRQAPGKCLEWVSYISSGSSTFYYADTVKGRFTISRDNAKNSLYLQMNSLRAEDTAVYYCGSSQSYYRGTMDYWGQGTTVTVSSGSDKTHTCPPCPAPELLGGPSVFLFPPKPKDTLMISRTPEVTCVVVDVSHEDPEVKFNWYVDGVEVHNAKTKPREEQYNSTYRVVSVLTVLHQDWLNGKEYKCKVSNKALPAPIEKTISKAKGQPREPRVYTLPPCRDELTKNQVSLTCLVKGFYPSDIAVEWESNGQPENNYKTTPPVLVSDGSFTLYSKLTVDKSRWQQGNVFSCSVMHEALHNHYTQKSLSLSPG
heavy: EVQLVESGGGLVKPGGSLRLSCAASGFTFSSYSMNWVRQAPGKGLEWVSSISSSSSYIYYADSVKGRFTISRDNAKNSLYLQMNSLRAEDTAVYYCARGAPIGAAAGWFDPWGQGTLVTVSSASTKGPSVFPLAPSSKSTSGGTAALGCLVKDYFPEPVTVSWNSGALTSGVHTFPAVLQSSGLYSLSSVVTVPSSSLGTQTYICNVNHKPSNTKVDKKVEPKSCDKTHTCPPCPAPELLGGPSVFLFPPKPKDTLMISRTPEVTCVVVDVSHEDPEVKFNWYVDGVEVHNAKTKPREEQYNSTYRVVSVLTVLHQDWLNGKEYKCKVSNKALPAPIEKTISKAKGQPREPQVCTLPPSRDELTENQVSLTCLVKGFYPSDIAVEWESNGQPENNYKTTPPVLDSDGSFFLYSWLTVDKSRWQQGNVFSCSVMHEALHNHYTQKSLSLSPG
light: DIQMTQSPSSVSASVGDRVTITCRASQGISSWLAWYQQKPGKAPKLLIYAASSLQSGVPSRFSGSGSGTDFTLTISSLQPEDFATYYCQQGVSFPRTFGGGTKVEIKRTVAAPSVFIFPPSDEQLKSGTASVVCLLNNFYPREAKVQWKVDNALQSGNSQESVTEQDSKDSTYSLSSTLTLSKADYEKHKVYACEVTHQGLSSPVTKSFNRGEC
notes: F3′ format; also called AB1888-VL-VH TriNKET®; 11F09-IGHV3-21*05 BM1-YB
In the case of B5, the EC50 stood at 18.5 nM and the “Max Fold Over Background (FOB)” value came to 22.1 fold over background.
